Data on 2 molecules can be found in PMC10234869.

Assay [1] addresses Signal Peptide Peptidase-like 2c, C-terminally myc-tagged (SPPL2c-myc) (murine) (UniProt A2A6C4).
The target in assay [2] is Frey1 CD74-Lum (Frey1-3xFLAG with its luminal domain replaced by the first 70 aa of the luminal segment of CD74) (murine) (UniProt Q8CF31). Put plainly: co-IP; anti-FLAG M2 and Protein G agarose from 0.5% CHAPSO lysates (1 mg in 500 µl, overnight, 4 °C) of transiently transfected HEK293T cells; four washes with CHAPSO buffer; eluates blotted; co-precipitated SPPL2c divided by the precipitated Frey1 or PLN variant and normalised to wild-type Frey1.

In assay [1], “PLN PRSAG (3xFLAG-PLN with the Frey1 residues P11, R12, S16, A25 and G26 at the corresponding positions of its membrane anchor) (from UniProt P61014 1-52)” returned an inhibition of SPPL2c-mediated processing of HA-RAMP4-2 in HEK cells (Fig. 4H, I) of 50%.

B1: Signal Peptide Peptidase-like 2c, C-terminally myc-tagged (SPPL2c-myc) (enzyme)
chain: EYGLVRVVSKNWSKDYCVLYSSDYVNLPRDLHHAPLLSLHDGTKTPWCPDEDSFHQAQDSSPRQRPLHQTTTMVTRGNCSFYAKGWLAQDQGAQGLLIVSRARNQQCSDTISKPQDPSKPWPALTIPVAVLRYTDMLDIVSHTYGDTDVRVAMFAPLEPVTDYNMAIIFILAVGTVAAGGYWAGLMEANKLQRRQAQRGGGLGGHNQQQTVAAERSQRAWEDDDFEDAPMDFTPAMTGAVVTMSCSIMILLYFFYDCFVYVMIGIFSLGASTGLYSCLAPILCHLPLWRYQWVLPGQRVSVTWPLLLLAGLCAMVTVLWVIHRNEDHWAWLLQDTLGVAYCLFVLRRVRLPTFKNCTLFLLALLAFDVFFVFITPLFTKTGESIMVEVASGPADSSSHERLPMVLKVPRLSFSALTLCNQPFSILGFGDIVVPGFLVAYCHRFDMQVQSRQVYYMACTVAYAVGLLVTFVAMILMQMGQPALLYLVSSTLLTSLAVATCRQEFTLFWTGQGRAKIPAEPVAQPCIASAVGSKMKLEDAKDSRTTNRFEQAVDGESGDLESSTGDDMAEMVTLSEDEATSPEGHSESSEGWSDTNLDPNELPSGSPMALEAMLIPLIQPIPHPSELGHIRTQSRVHDSSLPWMGLHKRKGLKVKKSMSAQAPL
B1 showed a co-precipitated SPPL2c, percent of wild-type Frey1, normalised to the expression level in assay [2] of 20%.
